Blank lines part the entries; values can stand above or below the molecule they belong to.
What was measured:
MpSDMT = molecular target: T1, MpSDMT (Methanohalophilus portucalensis, UniProt F6KV62); assay: radiometric acid-washed charcoal methyltransferase assay; assay type: biochemical; conditions: read-out: I50 AdoHcy
T1 construct: gene SAMN06264941_0526; full length, 278 residues, 30,690 Da calculated (38 kD on SDS-PAGE)
T1 sequence (F6KV62 1-278): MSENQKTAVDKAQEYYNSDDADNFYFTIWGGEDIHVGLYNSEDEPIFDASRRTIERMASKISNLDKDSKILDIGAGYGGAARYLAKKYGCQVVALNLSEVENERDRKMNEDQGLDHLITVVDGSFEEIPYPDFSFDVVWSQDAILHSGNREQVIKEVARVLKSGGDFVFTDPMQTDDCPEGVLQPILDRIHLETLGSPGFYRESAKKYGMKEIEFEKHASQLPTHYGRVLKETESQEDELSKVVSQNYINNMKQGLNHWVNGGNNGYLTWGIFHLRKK
Excerpt: radiometric acid-washed charcoal methyltransferase assay on MpSDMT

MpGSMT = molecular target: T2, MpGSMT (Methanohalophilus portucalensis, UniProt F6KV61); assay: as above; assay type: biochemical
T2 construct: gene gsmt; full length, 263 residues, 29,040 Da calculated (35 kD on SDS-PAGE)
T2 sequence (F6KV61 1-263): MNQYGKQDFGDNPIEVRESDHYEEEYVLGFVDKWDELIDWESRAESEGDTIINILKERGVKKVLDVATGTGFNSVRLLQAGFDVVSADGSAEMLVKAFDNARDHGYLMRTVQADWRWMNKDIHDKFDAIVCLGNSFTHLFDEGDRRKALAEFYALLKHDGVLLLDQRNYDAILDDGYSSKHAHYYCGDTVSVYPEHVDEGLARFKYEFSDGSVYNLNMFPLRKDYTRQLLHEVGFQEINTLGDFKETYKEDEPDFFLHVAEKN
Excerpt: radiometric acid-washed charcoal methyltransferase assay on MpGSMT

purified protein = substrate: C[S+](CC[C@H](N)C(=O)O)C[C@H]1O[C@@H](n2cnc3c(N)ncnc32)[C@H](O)[C@@H]1O; assay: purified protein; conditions: TES pH 7.3, 37 °C, labelled compound
[1] = substrate: CN(C)CC(=O)O; assay: radiometric acid-washed charcoal methyltransferase assay; assay type: biochemical, Methanohalophilus portucalensis; conditions: DMT activity, co-substrate AdoMet, TES pH 7.3, 37 °C (text b54 prints a different Km, equal to that of the native enzyme in the table)
[2] = substrate: CNCC(=O)O; assay: as above; assay type: biochemical, Methanohalophilus portucalensis; conditions: SMT activity, co-substrate AdoMet, TES pH 7.3, 37 °C (text b54 prints a different Km, equal to that of the native enzyme in the table)
[3] = molecular target: the molecule itself; assay: AUC; sedimentation velocity, 0.70 mg/ml MpGSMT in 0.1 M TES buffer (pH 7.3) with 0 to 2.0 M KCl, 20°C, 42,000 rpm, SEDFIT 9.4c; monomer to dimer

B1: MpSDMT (Methanohalophilus portucalensis FDF-1) (protein)
chain: T1 sequence (F6KV62 1-278)
notes: full length, 278 residues, 30,690 Da calculated (38 kD on SDS-PAGE)
- Km (purified protein; SMT activity, methyl acceptor sarcosine): 500 µM
- Km [1]: 660 µM
- Km [2]: 660 µM

B2: Methanohalophilus portucalensis glycine sarcosine methyltransferase (recombinant MpGSMT) (enzyme, UniProt F6KV61 1-263, looked up)
chain: T2 sequence (F6KV61 1-263)
notes: glycine sarcosine methyltransferase (GSMT) of Methanohalophilus portucalensis strain FDF1T; complete Mpgsmt gene, 792 bp, 263 amino acids, GenBank HQ634197; The tag is inferred from the vector and the Ni Sepharose purification; source: E. coli BL21(DE3)RIL, pET28a, purified (Ni Sepharose 6 Fast Flow)
- Km (purified protein; GMT activity, methyl acceptor glycine): 8260 µM
- stoichiometry N [3]: 2

Continued, values first:

- IC50 (MpSDMT): 150 µM
- IC50 (MpGSMT; read-out: I50 AdoHcy): 70 µM
Molecule: Nc1ncnc2c1ncn2[C@@H]1O[C@H](CSCC[C@H](N)C(=O)O)[C@@H](O)[C@H]1O [AdoHcy]

- activity at 1 M (MpGSMT; read-out: Relative activity (%) / Betaine / 1 M): 30%
Molecule: C[N+](C)(C)CC(=O)[O-] [betaine]
